Laboratory results reported in publication PMC4408115.

Target: SPbCZ5: leucine zipper-GGSG-LucY (from A235)-…-Avi-tag (Geobacillus species)
Test: split reporter (BiFC, NanoBiT); LucY protein-fragment complementation: LucY fragments fused to antiparallel leucine zippers, co-expressed in E. cloni 10G (E. coli), 16-18 h at 37°C; whole-cell fluorescence in PBS (excitation 485 nm, emission 528 nm) as percent of CZ (zipper fused to whole LucY)

- fluorescence, percent of CZ control (% of CZ control): 33
Substance: SPbNZ5: His6-LucY (to H234)-GGSGSS-leucine zipper
